Experimental findings from patent US20040142357A1 (BETH ISRAEL DEACONESS MEDICAL CENTER, published 2004) are described below.

Experiment [1] has as its target T1, GST (glutathione-S-transferase alone, on glutathione beads) (UniProt P08515 1-218 = GST).
T1 construct: Control protein; also called GST tag
Put plainly: GST pulldown from HeLa lysates, immunoblot with anti-GFP. As for the experimental part:
(§1) GST pulldown, immunoprecipitation and immunoblotting analysis were performed as described (Lu et al., 1999; Shen et al., 1998). Briefly, relevant proteins were expressed in HeLa or HT1080 cells by transient transfection, or translated in vitro using the TNT coupled transcription/translation kit (Promega) in the presence of [³⁵S]-Met, followed by lysis or dilution in a buffer containing 50 mM HEPES, pH 7.5, 150 mM NaCl, 100 mM NaF, 1 mM sodium orthovanadate, 10% glycerol, 1% Triton X100, 10 μg/ml aprotinin, 10 μg/ml leupeptin, 50 μg/ml phenylmethylsulfonyl fluoride and 1 mM DTT. The cellular supernatants were incubated with 1 μM GST or GST fusion proteins for 1 hr at 4° C. and 15 μl of glutathione agarose beads were then added, followed by further incubation for 2 h at 4° C. The precipitated proteins were washed 4 times in the same buffer and subjected to immunoblotting analysis. Other antibodies used for immunoprecipitation and immunoblotting analysis include anti-Pin2/TRF1 (Shen et al., 1997) and anti-hTERT antibodies (Novus). Membranes containing RNAs isolated from different human tissues (Clontech) were hybridized to the C-terminal coding sequence of PinX1 and then stripped, followed by reprobing with the house-keeping gene GAPDH for loading control.
(§2) To map the region in PinX1 that interacts with Pin2, we expressed different PinX1 fragments in HeLa cells as GFP fusion proteins (FIG. 3E), and then subjected them to GST pulldown experiments with GST-Pin2.
On the technique in general: A western blot detects proteins with antibodies after separation by electrophoresis.

For experiment [2], the target named is telomerase of HT1080 cells (telomerase-containing fraction, or cellular telomerase in stable HT1080 lines) (human, UniProt O14746 1-1132, limits assumed). Briefly: cell-based or functional assay.
The target of experiment [3] is T1, GST (glutathione-S-transferase alone, …). Briefly: GST pulldown from HeLa lysates, immunoblot with anti-HA. On the procedure:
as §1, with “control. […]” for “control.”

Experiment [4] addresses T2, GST-Pin2 (human, UniProt P54274 2-439).
T2 construct: Produced as described in Shen et al., 1997; also called GST-Pin2 beads (Pin2); not shown: glutathione-S-transferase (GST) tag
T2 sequence: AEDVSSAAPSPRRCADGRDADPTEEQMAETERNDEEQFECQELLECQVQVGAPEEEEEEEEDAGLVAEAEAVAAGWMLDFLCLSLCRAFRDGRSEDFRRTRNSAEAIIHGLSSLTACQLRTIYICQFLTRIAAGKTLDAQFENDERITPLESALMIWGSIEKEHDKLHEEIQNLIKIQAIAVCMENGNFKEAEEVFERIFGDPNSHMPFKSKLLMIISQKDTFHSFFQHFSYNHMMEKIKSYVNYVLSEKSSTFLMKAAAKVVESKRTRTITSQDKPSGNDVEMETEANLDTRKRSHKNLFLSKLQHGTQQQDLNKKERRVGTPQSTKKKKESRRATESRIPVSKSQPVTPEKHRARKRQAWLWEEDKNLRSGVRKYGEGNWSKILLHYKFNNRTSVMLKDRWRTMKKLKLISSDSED
Briefly: GST pulldown from HeLa lysates, immunoblot with anti-GFP. As for the experimental part: as §1, §2

T1 sequence (P08515 whole entry): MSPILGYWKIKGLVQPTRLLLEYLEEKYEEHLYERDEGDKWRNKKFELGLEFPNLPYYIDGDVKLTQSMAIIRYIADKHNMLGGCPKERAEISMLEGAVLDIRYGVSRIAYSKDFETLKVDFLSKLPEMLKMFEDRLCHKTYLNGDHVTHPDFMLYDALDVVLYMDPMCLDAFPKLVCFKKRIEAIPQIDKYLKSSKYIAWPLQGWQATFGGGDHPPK
Chain of telomerase of HT1080 cells (telomerase-containing fraction, or cellular telomerase in stable HT1080 lines) (O14746 whole entry): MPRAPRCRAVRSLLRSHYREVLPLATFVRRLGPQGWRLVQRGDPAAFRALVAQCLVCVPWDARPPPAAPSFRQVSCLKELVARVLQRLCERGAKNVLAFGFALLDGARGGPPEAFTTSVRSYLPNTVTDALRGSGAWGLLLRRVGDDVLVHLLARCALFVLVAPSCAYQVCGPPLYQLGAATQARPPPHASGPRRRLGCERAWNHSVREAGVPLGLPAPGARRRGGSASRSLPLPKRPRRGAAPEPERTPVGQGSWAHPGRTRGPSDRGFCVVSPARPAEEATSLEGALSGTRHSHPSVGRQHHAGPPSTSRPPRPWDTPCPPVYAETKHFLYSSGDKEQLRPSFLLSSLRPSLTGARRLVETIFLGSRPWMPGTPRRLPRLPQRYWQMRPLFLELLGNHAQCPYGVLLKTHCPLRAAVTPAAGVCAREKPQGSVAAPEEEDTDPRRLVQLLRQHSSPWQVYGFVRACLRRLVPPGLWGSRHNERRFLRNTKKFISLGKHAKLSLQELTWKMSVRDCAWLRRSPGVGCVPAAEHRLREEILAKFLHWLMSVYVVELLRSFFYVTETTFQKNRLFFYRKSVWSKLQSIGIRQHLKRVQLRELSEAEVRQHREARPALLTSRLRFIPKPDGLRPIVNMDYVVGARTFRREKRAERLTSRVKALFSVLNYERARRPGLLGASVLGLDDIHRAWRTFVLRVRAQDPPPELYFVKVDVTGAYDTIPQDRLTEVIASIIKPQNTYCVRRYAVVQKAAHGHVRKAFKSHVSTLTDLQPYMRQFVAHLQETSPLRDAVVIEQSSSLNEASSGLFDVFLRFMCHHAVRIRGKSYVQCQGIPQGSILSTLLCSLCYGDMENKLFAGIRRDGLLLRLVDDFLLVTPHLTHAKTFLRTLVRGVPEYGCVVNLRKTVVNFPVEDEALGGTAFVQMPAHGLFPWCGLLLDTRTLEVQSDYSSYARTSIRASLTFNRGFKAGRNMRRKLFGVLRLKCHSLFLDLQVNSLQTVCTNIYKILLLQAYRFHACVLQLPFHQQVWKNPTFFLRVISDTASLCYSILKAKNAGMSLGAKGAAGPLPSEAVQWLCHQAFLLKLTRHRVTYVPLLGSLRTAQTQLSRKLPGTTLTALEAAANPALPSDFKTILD

B1: GFP fusion of the PinX1 C-terminal 142-328 amino acid fragment (other)
chain: DLDCIFGKRQSKKTPEGDASPSTPEENETTTTSAFTIQEYFAKPVAALKNKPQVPVPGSDISETQVERKRGKKRNKEATGKDVESYLQPKAKRHTEGKPERAEAQERVAKKKCAPAEKQLRGPCWDQSSKASAQDAGDHVQPPEGRDFTLKPKKRRGKKKLQKPVEIAEDATLEETLVKKKKKKDSK
notes: Expressed in HeLa cells; not shown: GFP fusion partner
Turning to B1, the binding result in experiment [1] is listed as “no binding (tested: 1 µM)”.

B2: GST-PinX1-C (GST fusion of the C-terminal 74 amino acid fragment of PinX1, the telomerase inhibitory domain TID) (other, not shown: a dimerising Fc or GST)
chain: CAPAEKQLRGPCWDQSSKASAQDAGDHVQPPEGRDFTLKPKKRRGKKKLQKPVEIAEDATLEETLVKKKKKKDSK
On to B2, for which the “IC50 of inhibition of telomerase activity in vitro (TRAP assay)” value in experiment [2] was about 50 nM.

B3: GFP fusion of the PinX1 254-328 amino acid fragment (other)
chain: CAPAEKQLRGPCWDQSSKASAQDAGDHVQPPEGRDFTLKPKKRRGKKKLQKPVEIAEDATLEETLVKKKKKKDSK
notes: Expressed in HeLa cells; also called GFP-PinX1-C; C-terminal 74 amino acid fragment; not shown: GFP fusion partner
As for B3, the binding result in experiment [1] is “no binding (tested: 1 µM)”.

B4: GST-PinX1 (N-terminal GST fusion of full length PinX1) (other, not shown: a dimerising Fc or GST)
chain: MSMLAERRRKQKWAVDPQNTAWSNDDSKFGQRMLEKMGWSKGKGLGAQEQGATDHIKVQVKNNHLGLGATINNEDNWIAHQDDFNQLLAELNTCHGQETTDSSDKKEKKSFSLEEKSKISKNRVHYMKFTKGKDLSSRSKTDLDCIFGKRQSKKTPEGDASPSTPEENETTTTSAFTIQEYFAKPVAALKNKPQVPVPGSDISETQVERKRGKKRNKEATGKDVESYLQPKAKRHTEGKPERAEAQERVAKKKCAPAEKQLRGPCWDQSSKASAQDAGDHVQPPEGRDFTLKPKKRRGKKKLQKPVEIAEDATLEETLVKKKKKKDSK
On to B4, for which, in experiment [2], the “IC50 of inhibition of telomerase activity in vitro (TRAP assay)” value is about 50 nM.

B5: GFP-PinX1 (full length PinX1 as a GFP fusion protein) (other)
chain: MSMLAERRRKQKWAVDPQNTAWSNDDSKFGQRMLEKMGWSKGKGLGAQEQGATDHIKVQVKNNHLGLGATINNEDNWIAHQDDFNQLLAELNTCHGQETTDSSDKKEKKSFSLEEKSKISKNRVHYMKFTKGKDLSSRSKTDLDCIFGKRQSKKTPEGDASPSTPEENETTTTSAFTIQEYFAKPVAALKNKPQVPVPGSDISETQVERKRGKKRNKEATGKDVESYLQPKAKRHTEGKPERAEAQERVAKKKCAPAEKQLRGPCWDQSSKASAQDAGDHVQPPEGRDFTLKPKKRRGKKKLQKPVEIAEDATLEETLVKKKKKKDSK
notes: as for B1
In the case of B5, the binding result in experiment [1] is “no binding (tested: 1 µM)”.

B6: HA-PinX1 (PinX1 with an N-terminal HA epitope tag) (other, not shown: small tags and cut ends)
chain: MSMLAERRRKQKWAVDPQNTAWSNDDSKFGQRMLEKMGWSKGKGLGAQEQGATDHIKVQVKNNHLGLGATINNEDNWIAHQDDFNQLLAELNTCHGQETTDSSDKKEKKSFSLEEKSKISKNRVHYMKFTKGKDLSSRSKTDLDCIFGKRQSKKTPEGDASPSTPEENETTTTSAFTIQEYFAKPVAALKNKPQVPVPGSDISETQVERKRGKKRNKEATGKDVESYLQPKAKRHTEGKPERAEAQERVAKKKCAPAEKQLRGPCWDQSSKASAQDAGDHVQPPEGRDFTLKPKKRRGKKKLQKPVEIAEDATLEETLVKKKKKKDSK
notes: Expressed in HeLa or HT1080 cells; also called transfected PinX1 protein; 50 kDa HA-PinX1 protein
As for B6, the binding result in experiment [3] was “no binding (tested: 1 µM)”. For the same molecule, in experiment [2], the “fold decrease in telomerase activity in stable HT1080 cells (TRAP assay)” value is about 5 fold.

B7: GFP fusion of the N-terminal 142 amino acid fragment of PinX1 (other)
chain: MSMLAERRRKQKWAVDPQNTAWSNDDSKFGQRMLEKMGWSKGKGLGAQEQGATDHIKVQVKNNHLGLGATINNEDNWIAHQDDFNQLLAELNTCHGQETTDSSDKKEKKSFSLEEKSKISKNRVHYMKFTKGKDLSSRSKTD
notes: Expressed in HeLa cells; also called GFP-PinX1-N; PinX1-N; not shown: GFP fusion partner
B7: the binding result in experiment [4] and in experiment [1] was “no binding (tested: 1 µM)” in each case.
